The record followed here is patent US20040172686A1.

In this assay the target is yeast APC (anaphase promoting complex of Schizosaccharomyces pombe). Put plainly: cell-based or functional assay.

“HOBBIT (HBT) protein of Arabidopsis thaliana (from UniProt Q8LGU6 1-744)” registered a growth (optical density) of S. pombe nuc2ts at restrictive temperature, HBT cDNA against empty vector control of 4 fold.
